Ends that are not written are not given here.
T1: FV-short-RQ∗ (FV-short-RQ precleaved at Arg709 with thrombin) (human, UniProt P12259 29-737; P12259 738-2224, Δ756–1458 | Arg^1545 replaced with Gln)
T1 construct: coagulation factor V heavy chain (HC), released by cleavage at Arg709; coagulation factor V, rest of the shortened B-domain with AR2 joined to the light chain; also called FV-short cleaved at Arg709; source: FV-short-RQ (BHK cells, purified), 300 nM incubated with 2 nM thrombin 30 min at 37 °C, quenched with hirudin
T1 sequence (looked up) 1: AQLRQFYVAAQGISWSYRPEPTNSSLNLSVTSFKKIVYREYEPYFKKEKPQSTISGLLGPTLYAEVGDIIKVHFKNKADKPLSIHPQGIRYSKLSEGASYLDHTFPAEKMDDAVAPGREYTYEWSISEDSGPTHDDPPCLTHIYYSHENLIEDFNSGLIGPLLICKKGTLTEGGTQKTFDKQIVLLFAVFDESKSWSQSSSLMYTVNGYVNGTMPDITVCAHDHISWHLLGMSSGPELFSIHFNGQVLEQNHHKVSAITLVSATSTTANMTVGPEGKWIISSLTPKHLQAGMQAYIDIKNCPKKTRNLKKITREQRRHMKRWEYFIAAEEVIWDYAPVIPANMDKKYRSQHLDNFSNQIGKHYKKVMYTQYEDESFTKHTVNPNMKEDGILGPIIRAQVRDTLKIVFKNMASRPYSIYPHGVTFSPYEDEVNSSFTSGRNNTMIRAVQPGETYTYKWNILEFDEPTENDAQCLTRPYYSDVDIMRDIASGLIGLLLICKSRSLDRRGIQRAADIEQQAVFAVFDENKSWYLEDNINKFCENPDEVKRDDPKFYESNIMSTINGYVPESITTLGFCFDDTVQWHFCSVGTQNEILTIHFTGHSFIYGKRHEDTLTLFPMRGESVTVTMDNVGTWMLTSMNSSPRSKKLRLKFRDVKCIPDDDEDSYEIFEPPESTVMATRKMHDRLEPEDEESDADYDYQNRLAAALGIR
T1 sequence (looked up) 2: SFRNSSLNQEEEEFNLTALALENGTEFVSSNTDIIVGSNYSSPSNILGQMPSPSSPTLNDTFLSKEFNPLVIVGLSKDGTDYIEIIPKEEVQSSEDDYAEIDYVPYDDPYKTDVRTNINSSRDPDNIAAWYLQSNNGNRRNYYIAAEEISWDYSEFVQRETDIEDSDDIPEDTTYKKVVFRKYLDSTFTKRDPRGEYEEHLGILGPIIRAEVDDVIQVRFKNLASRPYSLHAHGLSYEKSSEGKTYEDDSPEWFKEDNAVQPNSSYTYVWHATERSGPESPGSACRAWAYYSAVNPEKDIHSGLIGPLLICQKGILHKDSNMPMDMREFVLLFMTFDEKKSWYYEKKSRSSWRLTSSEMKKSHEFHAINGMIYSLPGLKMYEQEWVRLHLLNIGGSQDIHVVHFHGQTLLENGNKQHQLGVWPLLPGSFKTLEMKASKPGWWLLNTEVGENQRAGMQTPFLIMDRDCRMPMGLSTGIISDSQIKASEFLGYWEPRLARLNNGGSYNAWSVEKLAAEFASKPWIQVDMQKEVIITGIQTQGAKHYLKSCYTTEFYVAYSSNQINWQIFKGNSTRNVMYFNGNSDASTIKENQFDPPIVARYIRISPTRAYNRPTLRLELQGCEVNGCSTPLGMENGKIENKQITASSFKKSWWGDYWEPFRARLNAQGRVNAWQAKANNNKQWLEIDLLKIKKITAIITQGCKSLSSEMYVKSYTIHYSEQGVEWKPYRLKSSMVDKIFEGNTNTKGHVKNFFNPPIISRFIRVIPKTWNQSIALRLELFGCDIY

T2: FV-short-QR∗ (FV-short-QR precleaved at Arg1545 with RVV-V) (human, UniProt P12259 29-1573; P12259 1574-2224, Δ756–1458 | Arg^709 replaced with Gln)
T2 construct: coagulation factor V heavy chain joined to the shortened B-domain with AR2; coagulation factor V light chain (LC), released by cleavage at Arg1545; also called FV-short cleaved at Arg1545; source: FV-short-QR (BHK cells, purified), 300 nM incubated with 2 nM RVV-V 30 min at 37 °C
T2 sequence (looked up) 1: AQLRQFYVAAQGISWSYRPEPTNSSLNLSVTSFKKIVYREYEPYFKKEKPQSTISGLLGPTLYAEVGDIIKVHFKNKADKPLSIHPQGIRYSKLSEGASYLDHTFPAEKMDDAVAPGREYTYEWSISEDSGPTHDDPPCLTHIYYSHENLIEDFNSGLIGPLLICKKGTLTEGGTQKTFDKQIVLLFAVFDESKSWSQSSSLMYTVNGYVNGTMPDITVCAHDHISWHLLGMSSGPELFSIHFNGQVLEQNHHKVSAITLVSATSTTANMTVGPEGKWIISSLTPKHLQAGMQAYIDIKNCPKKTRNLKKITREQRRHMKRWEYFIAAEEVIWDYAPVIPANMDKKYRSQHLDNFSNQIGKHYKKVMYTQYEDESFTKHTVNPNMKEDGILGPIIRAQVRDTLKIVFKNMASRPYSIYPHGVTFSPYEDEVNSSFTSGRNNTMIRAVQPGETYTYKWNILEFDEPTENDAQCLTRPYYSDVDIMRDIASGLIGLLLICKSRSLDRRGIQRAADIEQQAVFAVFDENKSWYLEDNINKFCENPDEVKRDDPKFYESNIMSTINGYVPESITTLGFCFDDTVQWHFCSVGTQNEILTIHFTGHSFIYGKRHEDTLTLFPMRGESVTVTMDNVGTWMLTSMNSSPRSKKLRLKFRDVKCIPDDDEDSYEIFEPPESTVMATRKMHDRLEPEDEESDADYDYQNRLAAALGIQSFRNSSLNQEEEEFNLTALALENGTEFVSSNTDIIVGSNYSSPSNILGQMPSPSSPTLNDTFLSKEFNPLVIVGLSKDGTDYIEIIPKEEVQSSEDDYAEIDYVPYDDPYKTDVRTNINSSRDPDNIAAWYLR
T2 sequence (looked up) 2: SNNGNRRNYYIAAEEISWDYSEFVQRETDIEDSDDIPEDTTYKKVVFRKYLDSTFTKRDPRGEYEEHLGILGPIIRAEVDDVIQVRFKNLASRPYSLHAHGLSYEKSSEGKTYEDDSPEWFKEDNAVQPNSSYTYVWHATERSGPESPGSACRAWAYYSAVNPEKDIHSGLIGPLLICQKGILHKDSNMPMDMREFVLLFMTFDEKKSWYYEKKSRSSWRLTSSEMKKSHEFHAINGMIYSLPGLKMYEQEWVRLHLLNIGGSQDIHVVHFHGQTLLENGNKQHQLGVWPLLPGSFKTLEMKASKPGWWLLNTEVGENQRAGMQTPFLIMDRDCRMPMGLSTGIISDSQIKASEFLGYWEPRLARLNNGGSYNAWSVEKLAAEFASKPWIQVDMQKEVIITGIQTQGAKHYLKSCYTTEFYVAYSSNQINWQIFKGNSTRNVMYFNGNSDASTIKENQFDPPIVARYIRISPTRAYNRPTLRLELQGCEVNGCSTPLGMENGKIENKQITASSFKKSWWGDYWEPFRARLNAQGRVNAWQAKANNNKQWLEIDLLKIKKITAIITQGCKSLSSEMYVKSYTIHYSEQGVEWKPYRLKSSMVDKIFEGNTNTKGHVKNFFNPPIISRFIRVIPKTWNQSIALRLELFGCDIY

T3: activated factor V (FVa) (human, UniProt P12259 29-737; P12259 1574-2224)
T3 construct: coagulation factor V heavy chain (HC; domains A1-A2); coagulation factor V light chain (LC; domains A3-C1-C2); source: prepared by treatment of FV-short (BHK cells) with thrombin, purified
T3 sequence (looked up) 1: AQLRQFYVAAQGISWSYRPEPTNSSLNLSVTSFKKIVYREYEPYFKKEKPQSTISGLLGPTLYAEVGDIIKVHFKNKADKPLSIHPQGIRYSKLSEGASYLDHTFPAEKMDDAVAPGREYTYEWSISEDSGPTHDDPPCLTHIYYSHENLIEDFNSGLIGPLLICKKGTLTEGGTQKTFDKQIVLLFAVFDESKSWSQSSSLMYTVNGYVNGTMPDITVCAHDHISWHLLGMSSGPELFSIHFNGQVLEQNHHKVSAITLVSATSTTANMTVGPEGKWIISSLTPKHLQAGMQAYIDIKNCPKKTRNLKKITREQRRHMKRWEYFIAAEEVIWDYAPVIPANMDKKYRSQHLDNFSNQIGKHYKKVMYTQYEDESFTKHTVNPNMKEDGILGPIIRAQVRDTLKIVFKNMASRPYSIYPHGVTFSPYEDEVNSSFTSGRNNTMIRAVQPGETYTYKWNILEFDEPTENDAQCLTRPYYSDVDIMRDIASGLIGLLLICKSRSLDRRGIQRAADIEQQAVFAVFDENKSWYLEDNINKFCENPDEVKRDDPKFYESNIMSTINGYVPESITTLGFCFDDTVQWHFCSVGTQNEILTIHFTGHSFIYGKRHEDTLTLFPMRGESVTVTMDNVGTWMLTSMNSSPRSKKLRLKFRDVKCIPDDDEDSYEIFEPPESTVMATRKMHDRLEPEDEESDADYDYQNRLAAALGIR
T3 sequence (looked up) 2: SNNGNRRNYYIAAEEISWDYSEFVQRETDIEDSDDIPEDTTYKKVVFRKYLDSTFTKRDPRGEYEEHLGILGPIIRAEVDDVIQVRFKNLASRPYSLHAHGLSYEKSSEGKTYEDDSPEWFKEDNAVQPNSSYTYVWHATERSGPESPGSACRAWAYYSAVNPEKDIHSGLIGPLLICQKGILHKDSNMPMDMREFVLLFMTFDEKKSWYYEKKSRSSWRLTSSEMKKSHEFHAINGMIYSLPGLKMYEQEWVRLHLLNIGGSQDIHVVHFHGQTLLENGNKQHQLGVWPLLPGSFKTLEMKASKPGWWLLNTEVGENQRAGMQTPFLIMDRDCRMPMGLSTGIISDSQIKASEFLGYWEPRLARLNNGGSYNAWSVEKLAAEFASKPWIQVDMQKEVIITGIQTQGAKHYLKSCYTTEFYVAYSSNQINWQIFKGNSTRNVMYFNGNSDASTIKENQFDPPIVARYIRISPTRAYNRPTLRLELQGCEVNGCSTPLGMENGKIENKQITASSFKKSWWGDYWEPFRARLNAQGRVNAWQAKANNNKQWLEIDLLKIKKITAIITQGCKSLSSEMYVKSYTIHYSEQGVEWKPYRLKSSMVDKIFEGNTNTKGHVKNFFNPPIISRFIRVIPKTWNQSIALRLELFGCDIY

B1: TFPIα-BR, fragment containing the BR sequence of TFPIα (domain or fragment)
chain: KKGFIQRISKGGLIKTKRKRKKQRVKIAYEEIFVKNM
modifications: limits not printed (refs 17, 18); taken as the whole C-terminal tail after Kunitz 3 (mature 240-276); expressed in E. coli, unglycosylated

Key:
Details in all cases: both partners purified
[1] = target: T4, FV-short (factor V isoform with B-domain residues 756 to 1458 deleted) (human); experiment: fluorescence polarisation; steady-state anisotropy; FV species (0–100 nM) titrated into 20 nM OG488-TFPIα-BR and 50 μM PCPS, assay buffer (20 mM HEPES, 0.15 M NaCl, 5 mM CaCl2, 0.1% PEG 8000, pH 7.4), 25 °C; fit to independent, noninteracting sites
T4 construct: coagulation factor V, splicing isoform FV-short, single chain, lacks the BR and retains AR2; source: BHK cells, purified

[2] = target: T1, FV-short-RQ∗ (FV-short-RQ precleaved at …); experiment: as above
[3] = target: T4, FV-short (factor V isoform with …); experiment: inhibition of prothrombinase (prothrombin activation assay); 0.1 nM cofactor species, 50 μM PCPS, 1.4 μM prothrombin, 3 μM DAPA, TFPIα-BR 0–7 μM, started with 2 nM FXa, assay buffer, 25 °C; Ki from the equation for competitive inhibition
[4] = target: T2, FV-short-QR∗ (FV-short-QR precleaved at …); experiment: as above
[5] = target: T1, FV-short-RQ∗ (FV-short-RQ precleaved at …); experiment: as above
[6] = target: T3, activated factor V (FVa); experiment: as above
[7] = target: T5, FV-short-QQ (FV-short with Arg709 and Arg1545 replaced with Gln) (human); experiment: as above
T5 construct: coagulation factor V, FV-short with both thrombin cleavage sites changed to Gln, not cleaved by thrombin; source: BHK cells, purified

[8] = target: T5, FV-short-QQ (FV-short with Arg709 and …); experiment: fluorescence polarisation; competition: unlabeled TFPIα-BR (0–2 μM) or TFPIα (0–1 μM) titrated into 25 nM OG488-TFPIα-BR, 20 nM FV-short-QQ and 50 μM PCPS, assay buffer, 25 °C; stoichiometry of 1 assumed
[9] = target: T4, FV-short (factor V isoform with …); experiment: inhibition of prothrombinase (prothrombin activation assay); 0.1 nM cofactor species, 50 μM PCPS, 1.4 μM prothrombin, 3 μM DAPA, TFPIα-BR 0–7 μM, started with 2 nM FXa, assay buffer, 25 °C; Ki from the equation for competitive inhibition; remark: listed apart in the source
[10] = target: T1, FV-short-RQ∗ (FV-short-RQ precleaved at …); experiment: as above; remark: listed apart in the source
[11] = target: T5, FV-short-QQ (FV-short with Arg709 and …); experiment: as above; remark: listed apart in the source

Binder	Kd [1] [nM]	Kd [2] [nM]	Ki [3] [nM]	Ki [4] [nM]	Ki [5] [nM]	Ki [6] [nM]	Ki [7] [nM]	Kd [8] [nM]	Ki [9] [nM]	Ki [10] [nM]	Ki [11] [nM]
{C(Oregon Green488 maleimide)}-KKGFIQRISKGGLIKTKRKRKKQRVKIAYEEIFVKNM (domain or fragment) [OG488-TFPIα-BR, TFPIα-BR modified with Oregon Green488 maleimide]	0.71 ± 0.11	2.16 ± 0.25	–	–	–	–	–	–	–	–	–
B1	–	–	23.6	> 7000	83.9	> 7000	23.4	2.25 ± 0.2	19.8	86.1	21.5
